Target: the molecule itself
Experiment: SEC; purified IscA in 20 mM Tris-HCl with 20 mM DTT or 5 mM TCEP; chromatograms showed no significant differences at 50, 150 or 1000 mM NaCl; self-association into dimers and higher species

B1: E. coli IscA protein (cluster-free) (natural protein)
chain: MSITLSDSAAARVNTFLANRGKGFGLRLGVRTSGCSGMAYVLEFVDEPTPEDIVFEDKGVKVVVDGKSLQFLDGTQLDFVKEGLNEGFKFTNPNVKDECGCGESFHV
notes: IscA of E. coli, recombinant, printed length 107 residues (11.5 kDa); cluster-free; 15N- or 13C/15N-labelled for NMR; also called alternative scaffold protein IscA; source: E. coli BL21 (DE3), pETM30 vector, purified (DEAE and Q anion exchange, Superdex 75 size exclusion)
B1: binds.

From publication PMC4788688, “Chemical shift assignment of the alternative scaffold protein IscA” (Biomolecular Nmr Assignments, 2016)
